Test results: paper PMC10188570, “Pathway and mechanism of tubulin folding mediated by TRiC/CCT along its ATPase cycle revealed using cryo-EM” (Communications Biology, 2023)

What was measured:
Assay in all cases: cross-linking; XL-MS, 2 mM BS3 on ice 2 h, purified TRiC with associated tubulin after 1 mM ATP, 5 mM MgCl2, 5 mM Al(NO3)3, 30 mM NaF (ATP-AlFx) 1 h 37 °C
Settings in all cases: both partners purified
CCT8 = target: T1, CCT8 (human, UniProt P50990 1-548)
T1 construct: CCT8 subunit of human TRiC/CCT, endogenous; stood in the assays as a subunit of the whole TRiC complex; also called TRiC subunit CCT8; CCT8’ (copy in the trans ring); source: endogenous, HEK293F cells, purified as a subunit of TRiC
T1 sequence (looked up): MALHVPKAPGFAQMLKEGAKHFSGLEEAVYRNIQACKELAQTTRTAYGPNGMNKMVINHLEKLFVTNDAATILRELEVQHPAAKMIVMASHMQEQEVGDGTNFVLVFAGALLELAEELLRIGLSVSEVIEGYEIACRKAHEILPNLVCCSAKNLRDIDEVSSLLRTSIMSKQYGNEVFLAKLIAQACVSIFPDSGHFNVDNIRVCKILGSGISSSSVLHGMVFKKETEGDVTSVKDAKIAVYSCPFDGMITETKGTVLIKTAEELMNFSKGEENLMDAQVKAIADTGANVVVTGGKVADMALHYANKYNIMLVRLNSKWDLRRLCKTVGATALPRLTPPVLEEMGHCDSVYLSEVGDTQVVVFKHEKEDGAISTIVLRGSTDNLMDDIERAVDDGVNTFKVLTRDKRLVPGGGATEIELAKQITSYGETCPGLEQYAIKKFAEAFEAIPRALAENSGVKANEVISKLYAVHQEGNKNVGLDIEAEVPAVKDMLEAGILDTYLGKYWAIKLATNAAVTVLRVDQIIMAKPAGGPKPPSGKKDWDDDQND

CCT3 = target: T2, CCT3 (human, UniProt P49368 1-545)
T2 construct: CCT3 subunit of human TRiC/CCT, endogenous; stood in the assays as a subunit of the whole TRiC complex; also called TRiC subunit CCT3; source: endogenous, HEK293F cells, purified as a subunit of TRiC
T2 sequence (looked up): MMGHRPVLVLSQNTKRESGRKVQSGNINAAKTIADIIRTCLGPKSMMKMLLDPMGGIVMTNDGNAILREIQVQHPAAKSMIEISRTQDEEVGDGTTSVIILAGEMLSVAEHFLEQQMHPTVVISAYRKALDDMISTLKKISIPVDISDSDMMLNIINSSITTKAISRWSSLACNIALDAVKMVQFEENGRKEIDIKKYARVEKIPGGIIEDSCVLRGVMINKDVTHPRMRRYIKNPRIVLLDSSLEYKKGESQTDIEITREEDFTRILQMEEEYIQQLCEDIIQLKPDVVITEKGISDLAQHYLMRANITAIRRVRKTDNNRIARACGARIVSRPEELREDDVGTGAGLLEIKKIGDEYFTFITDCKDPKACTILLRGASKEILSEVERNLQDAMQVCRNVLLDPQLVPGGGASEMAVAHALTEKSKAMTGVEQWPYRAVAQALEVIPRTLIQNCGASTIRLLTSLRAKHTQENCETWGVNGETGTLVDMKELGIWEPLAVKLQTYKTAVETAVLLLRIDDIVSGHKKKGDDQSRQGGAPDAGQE

CCT4 = target: T3, CCT4 (human, UniProt P50991 1-539)
T3 construct: CCT4 subunit of human TRiC/CCT, endogenous; stood in the assays as a subunit of the whole TRiC complex; also called TRiC subunit CCT4; source: endogenous, HEK293F cells, purified as a subunit of TRiC
T3 sequence (looked up): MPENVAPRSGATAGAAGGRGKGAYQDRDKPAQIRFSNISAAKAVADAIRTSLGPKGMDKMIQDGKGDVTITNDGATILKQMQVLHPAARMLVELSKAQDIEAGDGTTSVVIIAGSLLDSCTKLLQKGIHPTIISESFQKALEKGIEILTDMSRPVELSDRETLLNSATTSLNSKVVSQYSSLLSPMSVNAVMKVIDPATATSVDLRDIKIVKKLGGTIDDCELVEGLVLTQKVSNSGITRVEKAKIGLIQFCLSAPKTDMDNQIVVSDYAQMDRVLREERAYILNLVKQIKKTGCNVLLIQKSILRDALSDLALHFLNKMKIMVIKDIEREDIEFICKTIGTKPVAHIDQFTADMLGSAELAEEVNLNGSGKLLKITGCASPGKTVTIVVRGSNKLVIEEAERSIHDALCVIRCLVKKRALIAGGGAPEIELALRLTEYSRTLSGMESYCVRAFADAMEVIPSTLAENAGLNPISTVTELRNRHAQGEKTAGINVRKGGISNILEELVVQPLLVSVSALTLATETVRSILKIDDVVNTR

CCT5 = target: T4, CCT5 (human, UniProt P48643 1-541)
T4 construct: CCT5 subunit of human TRiC/CCT, endogenous; stood in the assays as a subunit of the whole TRiC complex; also called TRiC subunit CCT5; source: endogenous, HEK293F cells, purified as a subunit of TRiC

CCT7 = target: T5, CCT7 (human, UniProt Q99832 1-543)
T5 construct: CCT7 subunit of human TRiC/CCT, endogenous; stood in the assays as a subunit of the whole TRiC complex; also called TRiC subunit CCT7; source: endogenous, HEK293F cells, purified as a subunit of TRiC
T5 sequence (looked up): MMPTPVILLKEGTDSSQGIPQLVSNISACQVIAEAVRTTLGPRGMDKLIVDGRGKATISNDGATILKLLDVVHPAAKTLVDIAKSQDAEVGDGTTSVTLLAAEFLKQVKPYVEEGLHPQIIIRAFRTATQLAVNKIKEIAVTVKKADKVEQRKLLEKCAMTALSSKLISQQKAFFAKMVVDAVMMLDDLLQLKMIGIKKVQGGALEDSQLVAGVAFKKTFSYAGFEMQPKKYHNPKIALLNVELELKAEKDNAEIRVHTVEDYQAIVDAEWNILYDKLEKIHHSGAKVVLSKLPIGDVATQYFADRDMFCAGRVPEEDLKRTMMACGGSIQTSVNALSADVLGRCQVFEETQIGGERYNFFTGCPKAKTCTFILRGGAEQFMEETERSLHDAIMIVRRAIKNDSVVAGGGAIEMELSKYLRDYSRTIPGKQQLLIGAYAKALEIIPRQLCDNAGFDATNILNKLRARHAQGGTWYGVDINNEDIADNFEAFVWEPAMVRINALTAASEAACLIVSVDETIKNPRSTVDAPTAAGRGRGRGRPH

Measured: binding result

T4 sequence (P48643 whole entry): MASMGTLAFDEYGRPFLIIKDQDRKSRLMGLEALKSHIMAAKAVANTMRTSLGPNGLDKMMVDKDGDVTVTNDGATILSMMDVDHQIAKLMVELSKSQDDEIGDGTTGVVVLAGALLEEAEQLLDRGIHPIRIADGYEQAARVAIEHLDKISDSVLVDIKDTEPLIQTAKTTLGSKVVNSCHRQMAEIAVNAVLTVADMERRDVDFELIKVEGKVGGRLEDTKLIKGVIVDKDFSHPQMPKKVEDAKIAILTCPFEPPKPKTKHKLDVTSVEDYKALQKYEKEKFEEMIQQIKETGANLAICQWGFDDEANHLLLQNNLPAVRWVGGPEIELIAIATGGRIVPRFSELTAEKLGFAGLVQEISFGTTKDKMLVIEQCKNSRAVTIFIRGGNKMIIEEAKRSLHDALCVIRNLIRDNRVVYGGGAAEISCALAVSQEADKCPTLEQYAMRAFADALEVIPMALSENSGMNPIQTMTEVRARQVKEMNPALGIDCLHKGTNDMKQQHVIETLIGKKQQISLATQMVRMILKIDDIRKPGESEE

B1: β-tubulin (TUBB5) (natural protein, human (endogenous in HEK293F), UniProt P07437 1-444, looked up)
chain: MREIVHIQAGQCGNQIGAKFWEVISDEHGIDPTGTYHGDSDLQLDRISVYYNEATGGKYVPRAILVDLEPGTMDSVRSGPFGQIFRPDNFVFGQSGAGNNWAKGHYTEGAELVDSVLDVVRKEAESCDCLQGFQLTHSLGGGTGSGMGTLLISKIREEYPDRIMNTFSVVPSPKVSDTVVEPYNATLSVHQLVENTDETYCIDNEALYDICFRTLKLTTPTYGDLNHLVSATMSGVTTCLRFPGQLNADLRKLAVNMVPFPRLHFFMPGFAPLTSRGSQQYRALTVPELTQQVFDAKNMMAACDPRHGRYLTVAAVFRGRMSMKEVDEQMLNVQNKNSSYFVEWIPNNVKTAVCDIPPRGLKMAVTFIGNSTAIQELFKRISEQFTAMFRRKAFLHWYTGEGMDEMEFTEAESNMNDLVSEYQQYQDATAEEEEDFGEEAEEEA
notes: β-tubulin (TUBB5), human, endogenous; identified by MS and western blot; folding intermediate to near-natively folded, depending on the state of TRiC; also called substrate; source: endogenous, HEK293F cells, co-purified with TRiC
binds: CCT8 | CCT3 | CCT4 | CCT5 | CCT7
